Test results published in article PMC7273913.

Target: Xenopus laevis FANCD2, 6xHis-tagged (Xenopus laevis)

in vitro FANCD2 monoubiquitination (Ube1, Ube2T, FANCL URD-RING, fluorescently labelled ubiquitin, 10 min at 30°C), against WT FANCL: 47 % of WT
B1: Human FANCL URD-RING (109–375) hydrophobic patch mutant L248A, F252A, L254A, I265A (domain or fragment)
chain: QFYSSLIEEIGTLGWDKLVYADTCFSTIKLKAEDASGREHLITLKLKAKYPAESPDYFVDFPVPFCASWTPQSSLISIYSQFLAAIESLKAFWDVMDEIDEKTWVLEPEKPPRSATARRIALGNNVSINIEVDPRHPTMAPECAFAGADHVVKPLGAKLSRNIHLWDPENSVLQNLKDVLEIDFPARAILEKSDFTMDCGICYAYQLDGTIPDQVCDNSQCGQPFHQICLYEWLRGLLTSRQSFNIIFGECPYCSKPITLKMSGRKH
